According to US20210332141A1, “INSULIN-LIKE GROWTH FACTOR-1 RECEPTOR (IGF-1R) BINDING PROTEINS AND METHODS OF USE” (AMGEN INC., priority 2017, published 2021):

What was measured:
HER-2 = HER-2 (Homo sapiens, UniProt P04626); settings: cellular; read-out: IC50 against Others: HER-2; cited from earlier work
[1] = target: murine IGF-1R(ECD)-C3-mFc (murine) (UniProt Q60751); assay: IGEN ligand blocking, maximal inhibition of human Ru labeled IGF-1 binding to murine IGF-1R(ECD)-C3-mFc
[2] = target: murine IGF-1R(ECD)-C3-mFc (murine) (UniProt Q60751); assay: IGEN ligand blocking, competitor human Ru labeled IGF-2 on murine IGF-1R(ECD)-C3-mFc
[3] = target: murine IGF-1R(ECD)-C3-mFc (murine) (UniProt Q60751); assay: Biacore, kinetic method, murine IGF-1R(ECD)-C3-mFc
[4] = target: murine IGF-1R(ECD)-C3-mFc (murine) (UniProt Q60751); assay: IGEN ligand blocking, competitor human Ru labeled IGF-1 on murine IGF-1R(ECD)-C3-mFc

Chain of murine IGF-1R(ECD)-C3-mFc (murine) (Q60751 31-936): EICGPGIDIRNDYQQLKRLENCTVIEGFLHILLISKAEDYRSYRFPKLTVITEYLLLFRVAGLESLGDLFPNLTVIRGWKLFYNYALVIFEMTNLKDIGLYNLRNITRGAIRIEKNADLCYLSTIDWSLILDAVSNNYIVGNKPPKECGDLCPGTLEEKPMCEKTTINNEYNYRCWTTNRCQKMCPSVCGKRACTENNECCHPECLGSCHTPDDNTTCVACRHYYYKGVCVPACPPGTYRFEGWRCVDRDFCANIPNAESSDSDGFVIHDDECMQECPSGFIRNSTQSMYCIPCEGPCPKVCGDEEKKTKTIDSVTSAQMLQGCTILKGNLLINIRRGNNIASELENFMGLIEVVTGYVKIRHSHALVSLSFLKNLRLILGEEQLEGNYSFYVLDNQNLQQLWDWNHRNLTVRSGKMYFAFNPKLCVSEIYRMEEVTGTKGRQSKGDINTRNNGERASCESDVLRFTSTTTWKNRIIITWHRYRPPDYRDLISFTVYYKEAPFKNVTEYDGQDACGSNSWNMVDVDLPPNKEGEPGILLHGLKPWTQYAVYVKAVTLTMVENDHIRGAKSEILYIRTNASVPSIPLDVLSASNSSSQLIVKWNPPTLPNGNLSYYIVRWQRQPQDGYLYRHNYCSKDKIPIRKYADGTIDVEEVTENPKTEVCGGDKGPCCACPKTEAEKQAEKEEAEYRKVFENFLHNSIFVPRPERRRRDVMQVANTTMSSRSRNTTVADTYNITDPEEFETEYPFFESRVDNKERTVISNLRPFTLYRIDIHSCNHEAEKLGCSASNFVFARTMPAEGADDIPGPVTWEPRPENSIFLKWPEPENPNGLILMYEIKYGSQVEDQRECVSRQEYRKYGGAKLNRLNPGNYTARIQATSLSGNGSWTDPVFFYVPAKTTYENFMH
Chain of HER-2 (P04626 23-1255, species assumed): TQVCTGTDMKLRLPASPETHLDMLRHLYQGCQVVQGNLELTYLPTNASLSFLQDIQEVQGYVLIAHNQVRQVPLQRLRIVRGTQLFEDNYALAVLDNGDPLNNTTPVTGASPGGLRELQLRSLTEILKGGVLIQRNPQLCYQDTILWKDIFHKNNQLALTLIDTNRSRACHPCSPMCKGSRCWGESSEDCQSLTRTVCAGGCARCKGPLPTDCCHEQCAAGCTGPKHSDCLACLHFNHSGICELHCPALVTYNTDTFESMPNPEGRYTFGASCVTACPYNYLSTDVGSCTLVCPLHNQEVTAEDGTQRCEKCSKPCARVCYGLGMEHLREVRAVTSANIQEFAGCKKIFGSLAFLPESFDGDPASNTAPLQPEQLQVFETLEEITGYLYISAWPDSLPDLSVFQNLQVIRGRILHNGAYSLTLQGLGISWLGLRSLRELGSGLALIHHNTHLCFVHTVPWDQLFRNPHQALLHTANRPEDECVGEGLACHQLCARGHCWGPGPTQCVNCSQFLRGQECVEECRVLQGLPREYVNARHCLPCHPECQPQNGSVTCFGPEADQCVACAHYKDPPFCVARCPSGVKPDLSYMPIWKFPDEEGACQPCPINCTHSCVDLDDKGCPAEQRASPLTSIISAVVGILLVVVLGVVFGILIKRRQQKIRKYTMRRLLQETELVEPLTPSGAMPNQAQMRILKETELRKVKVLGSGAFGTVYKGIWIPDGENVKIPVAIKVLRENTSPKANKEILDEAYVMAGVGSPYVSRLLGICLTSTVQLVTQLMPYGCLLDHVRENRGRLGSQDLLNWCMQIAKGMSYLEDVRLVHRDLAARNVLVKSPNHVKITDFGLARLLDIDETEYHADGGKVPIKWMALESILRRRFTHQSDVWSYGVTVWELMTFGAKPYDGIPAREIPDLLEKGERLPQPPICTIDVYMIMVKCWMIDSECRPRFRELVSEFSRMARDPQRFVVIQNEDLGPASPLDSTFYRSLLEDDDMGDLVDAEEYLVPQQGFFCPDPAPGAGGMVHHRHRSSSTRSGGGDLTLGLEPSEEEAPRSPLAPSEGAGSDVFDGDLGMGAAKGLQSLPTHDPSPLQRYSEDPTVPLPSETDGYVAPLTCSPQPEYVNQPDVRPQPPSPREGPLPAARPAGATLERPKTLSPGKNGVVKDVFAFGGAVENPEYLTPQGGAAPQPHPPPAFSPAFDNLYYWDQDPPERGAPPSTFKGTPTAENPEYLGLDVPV

Row | IGF-1 Max (%) [1] | Ki [2] | Kd [3] | Ki [4] | Compound | IC50 (HER-2)
1 | – | – | – | – | C[C@H](Cc1ccc(O)c(O)c1)[C@@H](C)Cc1ccc(O)c(O)c1 [INSM-18, nondihydroguaiaretic acid] | 15000 nM
2 | 31% | > 1000 nM | 0.33 nM | > 1000 nM | αIR3 (antibody) | –
